Reference: paper PMC12233901, “Resolving the APN controversy in PEDV infection: Comparative kinetic characterization through single-virus tracking” (PLOS Pathogens, 2025)

T1: porcine aminopeptidase N (pAPN) fused with a hFc tag (porcine, UniProt P15145)
T1 construct: also called porcine APN; source: HEK293T cell expression system, expressed and purified
T1 sequence: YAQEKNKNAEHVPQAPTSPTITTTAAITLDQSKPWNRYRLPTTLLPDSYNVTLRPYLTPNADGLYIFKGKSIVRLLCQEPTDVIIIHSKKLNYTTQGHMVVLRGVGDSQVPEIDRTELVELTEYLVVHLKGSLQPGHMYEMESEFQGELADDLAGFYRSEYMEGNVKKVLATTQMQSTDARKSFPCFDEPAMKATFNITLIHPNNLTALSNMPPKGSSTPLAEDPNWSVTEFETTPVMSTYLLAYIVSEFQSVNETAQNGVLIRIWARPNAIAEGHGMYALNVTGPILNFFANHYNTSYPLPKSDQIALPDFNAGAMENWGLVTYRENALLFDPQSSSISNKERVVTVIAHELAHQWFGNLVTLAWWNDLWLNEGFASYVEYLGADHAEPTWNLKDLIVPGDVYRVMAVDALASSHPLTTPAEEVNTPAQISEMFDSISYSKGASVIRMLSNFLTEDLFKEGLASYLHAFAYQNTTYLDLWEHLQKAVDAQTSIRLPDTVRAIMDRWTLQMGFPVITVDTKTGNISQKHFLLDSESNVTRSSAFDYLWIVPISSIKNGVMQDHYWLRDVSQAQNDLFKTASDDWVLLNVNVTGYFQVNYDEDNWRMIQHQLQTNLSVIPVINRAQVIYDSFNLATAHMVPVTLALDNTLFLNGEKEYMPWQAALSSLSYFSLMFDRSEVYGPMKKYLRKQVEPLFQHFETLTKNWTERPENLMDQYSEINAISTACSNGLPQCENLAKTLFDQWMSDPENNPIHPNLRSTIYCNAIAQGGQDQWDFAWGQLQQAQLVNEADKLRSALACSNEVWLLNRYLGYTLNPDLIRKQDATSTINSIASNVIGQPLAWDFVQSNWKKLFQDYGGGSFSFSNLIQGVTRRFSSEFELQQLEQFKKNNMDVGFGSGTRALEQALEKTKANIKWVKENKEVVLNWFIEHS

B1: PEDV S1 protein with a C-terminal His tag (domain or fragment)
chain: CQSTTNFRRFFSKFNVQAPAVVVLGGYLPSMNSSSWYCGTGIETASGVHGIFLSYIDSGQGFEIGISQEPFDPSGYQLYLHKATNGNTNAIARLRICQFPDNKTLGPTVNDVTTGRNCLFNKAIPAYMRDGKDIVVGITWDNDRVTVFADKIYHFYLKNDWSRVATRCYNRRSCAMQYVYTPTYYMLNVTSAGEDGIYYEPCTANCTGYAANVFATDSNGHIPEGFSFNNWFLLSNDSTLLHGKVVSNQPLLVNCLLAIPKIYGLGQFFSFNHTMDGVCNGAAVDRAPEALRFNINDTSVILAEGSIVLHTALGTNLSFVCSNSSDPHLAIFAIPLGATEVPYYCFLKVDTYNSTVYKFLAVLPPTVREIVITKYGDVYVNGFGYLHLGLLDAVTINFTGHGTDDDVSGFWTIASTNFVDALIEVQGTSIQRILYCDDPVSQLKCSQVAFDLDDGFYPISSRNLLSHEQPISFVTLPSFNDHSFVNITVSAAFGGLSSANLVASDTTINGFSSFCVDTRQFTITLFYNVTNSYGYVSKSQDSNCPFTLQSVNDYLSFSKFCVSTSLLAGACTIDLFGYPAFGSGVKLTSLYFQFTKGELITGTPKPLEGITDVSFMTLDVCTKYTIYGFKGEGIITLTNSSILAGVYYTSDSGQLLAFKNVTSGAVYSVTPCSFSEQAAYVNDDIVGVISSLSNSTFNNTRELPGFFYH
B2: TGEV S1 protein with a C-terminal His tag (domain or fragment)
chain: IGNHWNLIETFLLNYSSRLPPNSDAVLGDYFPTVQPWFNCIRNNSNDLYVTLENLKALYWDYAIENITSNHKQRLNVVVNGYPYSITVTTTRNFNSAEGAIICICKGSPPTTTTESSLTCNWGSECRLNHKFPICPSNSEANCGNMLYGLQWFADAVVAYLHGASYRISFENQWSGTVTLGDMRATTLETAGTLVDLWWFNPVYDVSYYRVNNKNGTTVVSNCTDQCASYVANVFTTQPGGFIPSDFSFNNWFLLTNSSTLVSGKLVTKQPLLVNCLWPVPSFEEAASTFCFEGAGFDQCNGAVLNNTVDVIRFNLNFTTNVQSGKGATVFSLNTTGGVTLEISCYNDTVSDSSFSSYGEMPFGVTDGPRYCYVLYNGTALKYLGTLPPVVKEIAISKWGHFYINGYNFFSTFPIDCISFNLTTGDSDVFWTIAYTSYTEALVQVENTAITKVTYCNSYVNNIKCSQLTANLNNGFYPVSSSEVGLVNKSVVLLPSFYTHTIVNITIGLGMKRSGYGQPIASTLSNITLPMQDDNTDVYCIRSDQFSVYVHSTCKSALWDNVFKRNCTDVLDATAVIKTGTCPFSFAKLNNYLTFNKFCLSLSPVGANCKFDVAARTRTNDQVVRSLYVIYEEGDNIVGVPSDNSGLHDLSVLHLDSCTDYNIYGRTGVGIIRQTNRTLLSGLYYTSLSGDLLGFKNVSDGVIYSVTPCDVIAQAAVIDGTIVGAITSINSELLGLTHWTTTPNFYYY

Biological target: T1, porcine aminopeptidase N (pAPN) fused …
Assay: SPR; […]; Biacore 8K, room temperature
Settings: both partners purified

Binder | Kd
B1 | 47.5 µM
B2 | 0.392 µM
